This is an account of results in patent publication US20240301069A1.

Test [1] deals with human PD-L1 full-length protein on CHO-hPD-L1 stable cells (human) (UniProt Q9NZQ7). The experiment in a line: flow cytometry, antibody titration on CHO-hPD-L1 cells, MFI-APC.
For test [2], the target named is macaque PD-L1 on CHO-cynoPD-L1 stable cells (macaque). In words: flow cytometry, antibody titration on CHO-cynoPD-L1 cells, MFI-APC. In general terms: Flow cytometry measures light scatter and fluorescence of single cells or particles in a stream.
Test [3] concerns the target human PD-L1 on IFNγ-stimulated A375 cells (human) (UniProt Q9NZQ7). The experiment in a line: flow cytometry, antibody titration on human IFNγ-stimulated A375 cells, MFI-APC.
Test [4] has as its target human PD-L1 full-length protein on CHO-hPD-L1 stable cells (human) (UniProt Q9NZQ7). In words: flow cytometry blocking assay: antibody titrated on CHO-hPD-L1 cells; blocked ligand recombinant human CD80-hFc.
For test [5] the target is unchanged. In words: flow cytometry blocking assay (method 1): antibody titrated on CHO-hPD-L1 cells; blocked ligand recombinant human PD-1-hFc.
The target in test [6] is recombinant human PD-L1 protein carrying a hFc label (human) (UniProt Q9NZQ7). In words: flow cytometry blocking assay (method 2): antibody titrated; binding of recombinant human PD-L1-hFc to PD-1 on CHO-hPD-1 cells is blocked.
recombinant human PD-L1 protein carrying a hFc label (human), sequence (Q9NZQ7 19-238): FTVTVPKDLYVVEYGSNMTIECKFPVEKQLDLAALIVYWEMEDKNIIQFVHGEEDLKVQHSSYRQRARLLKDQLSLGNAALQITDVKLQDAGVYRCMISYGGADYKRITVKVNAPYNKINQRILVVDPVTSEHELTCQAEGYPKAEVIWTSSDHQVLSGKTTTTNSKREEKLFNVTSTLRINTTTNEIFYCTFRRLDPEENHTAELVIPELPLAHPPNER

human PD-L1 full-length protein on CHO-hPD-L1 stable cells (human), sequence (Q9NZQ7 19-290 limits assumed): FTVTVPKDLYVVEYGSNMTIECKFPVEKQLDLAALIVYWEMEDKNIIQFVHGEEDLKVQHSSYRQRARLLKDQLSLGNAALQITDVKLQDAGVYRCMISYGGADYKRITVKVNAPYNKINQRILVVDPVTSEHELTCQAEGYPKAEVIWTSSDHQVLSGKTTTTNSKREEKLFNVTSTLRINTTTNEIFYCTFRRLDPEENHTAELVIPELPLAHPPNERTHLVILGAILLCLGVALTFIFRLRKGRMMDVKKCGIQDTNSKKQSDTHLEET
macaque PD-L1 on CHO-cynoPD-L1 stable cells (macaque), sequence (Q9NZQ7 other isoform, or with tags, fused parts or gaps limits assumed): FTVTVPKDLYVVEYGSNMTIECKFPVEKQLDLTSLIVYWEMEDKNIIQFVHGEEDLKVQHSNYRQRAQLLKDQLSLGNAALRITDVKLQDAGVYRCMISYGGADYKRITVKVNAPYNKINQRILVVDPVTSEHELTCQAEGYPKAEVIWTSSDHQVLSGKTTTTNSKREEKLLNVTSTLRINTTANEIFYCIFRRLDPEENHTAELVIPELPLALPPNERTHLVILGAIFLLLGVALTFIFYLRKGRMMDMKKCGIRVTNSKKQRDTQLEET
human PD-L1 on IFNγ-stimulated A375 cells (human), sequence (Q9NZQ7 19-290): as the sequence (Q9NZQ7 19-290 limits assumed) above

Broadly, the EC50 is the midpoint of the concentration-response curve. Lower therefore signals greater potency. For orientation: IC50 means the concentration that gives 50% inhibition. Regarding “atezolizumab-mIgG1 (mIgG1 subtype) (antibody)”, the EC50 in test [1] came to 0.984 nM; in test [2], 2.02 nM; in test [3], 0.121 nM. Besides, the figures for the IC50 in test [4], in test [5] and in test [6] were 4.39 nM, 6.32 nM and 1.61 nM, respectively.
